From patent publication US20170052184A1 (published 2017)
Ends that are not written are not given here.

Legend:
[1] = molecular target: T1, C113WT biotin labeled HCV core peptide (hepatitis C virus, also: biotin labeled, position not given here); experiment: EIA; Ab 2000 ng/mL captured on anti-mouse Fc; bt-peptide 500 ng/mL
T1 peptide: RGSRPSWGPTD

[2] = molecular target: T2, Mut6T110S biotin labeled HCV core peptide (hepatitis C virus); experiment: as above
[3] = molecular target: T3, WT1STHV biotin labeled HCV core peptide (hepatitis C virus, biotin labeled); experiment: as above
T3 peptide: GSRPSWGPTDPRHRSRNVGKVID

[4] = molecular target: T4, Mut1T110N biotin labeled HCV core peptide (hepatitis C virus, biotin labeled); experiment: as above
T4 peptide: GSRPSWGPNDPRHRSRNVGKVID

[5] = molecular target: T5, C113T109N biotin labeled HCV core peptide (hepatitis C virus, also: biotin labeled, position not given here); experiment: as above
T5 peptide: RGSRPSWGPND

[6] = molecular target: T1, C113WT biotin labeled HCV core peptide; experiment: EIA; Ab 500 ng/mL captured on anti-mouse Fc; bt-peptide 500 ng/mL
[7] = molecular target: T2, Mut6T110S biotin labeled HCV core …; experiment: as above
[8] = molecular target: T5, C113T109N biotin labeled HCV core …; experiment: as above
[9] = molecular target: T1, C113WT biotin labeled HCV core peptide; experiment: EIA; Ab 1.953 ng/mL captured on anti-mouse Fc; bt-peptide 500 ng/mL
[10] = molecular target: T2, Mut6T110S biotin labeled HCV core …; experiment: as above
[11] = molecular target: T3, WT1STHV biotin labeled HCV core peptide; experiment: as above
[12] = molecular target: T4, Mut1T110N biotin labeled HCV core …; experiment: as above
[13] = molecular target: T5, C113T109N biotin labeled HCV core …; experiment: as above
[14] = molecular target: T1, C113WT biotin labeled HCV core peptide; experiment: EIA; Ab 31.25 ng/mL captured on anti-mouse Fc; bt-peptide 500 ng/mL
[15] = molecular target: T2, Mut6T110S biotin labeled HCV core …; experiment: as above
[16] = molecular target: T3, WT1STHV biotin labeled HCV core peptide; experiment: as above
[17] = molecular target: T5, C113T109N biotin labeled HCV core …; experiment: as above
[18] = molecular target: T1, C113WT biotin labeled HCV core peptide; experiment: EIA; Ab 0.977 ng/mL captured on anti-mouse Fc; bt-peptide 500 ng/mL
[19] = molecular target: T2, Mut6T110S biotin labeled HCV core …; experiment: as above
[20] = molecular target: T3, WT1STHV biotin labeled HCV core peptide; experiment: as above
[21] = molecular target: T4, Mut1T110N biotin labeled HCV core …; experiment: as above
[22] = molecular target: T5, C113T109N biotin labeled HCV core …; experiment: as above
[23] = molecular target: T1, C113WT biotin labeled HCV core peptide; experiment: EIA; Ab 15.625 ng/mL captured on anti-mouse Fc; bt-peptide 500 ng/mL
[24] = molecular target: T2, Mut6T110S biotin labeled HCV core …; experiment: as above
[25] = molecular target: T3, WT1STHV biotin labeled HCV core peptide; experiment: as above
[26] = molecular target: T4, Mut1T110N biotin labeled HCV core …; experiment: as above
[27] = molecular target: T5, C113T109N biotin labeled HCV core …; experiment: as above

B1: HCV Neo4 monoclonal antibody (antibody, V domains shown)
VH: QIQLKESGPAVIKPSQSLSLTCIVSGFSITSSVYCWQWIRQPPGKGLEWMGRICYDGSVDYSPSITSRGTISRDTSLNKVFFQLSSVTNEDTAMYYCSRENHIDYYDTTYPSFDVWGAGTTVTVSS
VL: DIVLTQSPASLIVSLGQRATISCRASKSVNEYGYTYMHWYQQKPGLPPKLLIYLASNLDSGVPARFSGSGSGTDFTLNIHPVEEEDAATYYCQHSRELPYTFGGGTKLEIKR
For B1, the “signal at 492 nm” value [1] was 0.0766 OD 492 nm, the “signal at 492 nm” value [2] was 1.17 OD 492 nm and the “signal at 492 nm” value [3] was 1.9 OD 492 nm. The “signal at 492 nm” value [4] was 0.0882 OD 492 nm, the “signal at 492 nm” value [5] was 0.059 OD 492 nm and the “signal at 492 nm” value [6] was 0.0561 OD 492 nm. The “signal at 492 nm” value [7] was 1.17 OD 492 nm, the “signal at 492 nm” value [8] was 0.0803 OD 492 nm and the “signal at 492 nm” value [9] was 0.0765 OD 492 nm. For the same binder, the “signal at 492 nm” value [10] was 0.0717 OD 492 nm, the “signal at 492 nm” value [11] was 0.409 OD 492 nm and the “signal at 492 nm” value [12] was 0.0728 OD 492 nm. The “signal at 492 nm” value [13] was 0.0853 OD 492 nm, the “signal at 492 nm” value [14] was 0.0622 OD 492 nm and the “signal at 492 nm” value [15] was 0.48 OD 492 nm. For the same binder, the “signal at 492 nm” value [16] was 1.67 OD 492 nm, the “signal at 492 nm” value [17] was 0.0815 OD 492 nm and the “signal at 492 nm” value [18] was 0.0584 OD 492 nm. For the same binder, the “signal at 492 nm” value [19] was 0.0644 OD 492 nm, the “signal at 492 nm” value [20] was 0.22 OD 492 nm and the “signal at 492 nm” value [21] was 0.0619 OD 492 nm. The “signal at 492 nm” value [22] was 0.0784 OD 492 nm, the “signal at 492 nm” value [23] was 0.0697 OD 492 nm and the “signal at 492 nm” value [24] was 0.25 OD 492 nm. For the same binder, the “signal at 492 nm” value [25] was 1.42 OD 492 nm, the “signal at 492 nm” value [26] was 0.0771 OD 492 nm and the “signal at 492 nm” value [27] was 0.0736 OD 492 nm.
